Test results taken from patent US20160068605A1 (Janssen / Centocor, published 2016).

Biological target: T1, sp2 isoform of human CD123 ECD with C-terminal 8xHis tag (crystallography) (human, UniProt P26951 101-303)
T1 construct: expressed in baculovirus-infected insect cells; also called CD123 sp2; CD123 SP2 ECD
T1 sequence: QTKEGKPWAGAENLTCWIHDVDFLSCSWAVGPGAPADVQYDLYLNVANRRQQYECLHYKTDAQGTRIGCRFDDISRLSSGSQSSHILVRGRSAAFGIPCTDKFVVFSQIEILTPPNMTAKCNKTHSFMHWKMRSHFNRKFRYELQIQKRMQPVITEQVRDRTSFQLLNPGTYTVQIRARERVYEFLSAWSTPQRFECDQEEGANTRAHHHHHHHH
Assay: size-exclusion chromatography of the mixed proteins
Description: The protein was concentrated to 18 mg/mL in 20 mM HEPES, pH 7.5, 100 mM NaCl.

- binding result: binds
B1: single-chain Fv fragment of anti-CD123 mAb I3RB18 (scFv)
scFv: EIVLTQSPGTLSLSPGERATLSCRASQSVSSSYLAWYQQKPGQAPRLLIYGASSRATGIPDRFSGSGSGTDFTLTISRLEPEDFAVYYCQQDYGFPWTFGQGTKVEIKGGGGSGGGGSGGGGSGGGGSEVQLVQSGAEVKKPGESLKISCKGSGYSFTSYWISWVRQMPGKGLEWMGIIDPSDSDTRYSPSFQGQVTISADKSISTAYLQWSSLKASDTAMYYCARGDGSTDLDYWGQGTLVTVSSGHHHHHH
notes: form VL-(Gly4Ser)4-VH-Gly-His6, expressed in HEK293 Expi cells; also called I3RB18 scFv; I3RB18 derived scFv
